Experimental data reported in US7169567B1, “Screening assay utilizing the PTH receptor” (The General Hospital Corporation, priority 1998, dated 2007).
Where no end group is shown, it is not given here.

Assays:
Type in all cases: cell-based
human PTH-1 receptor = target: T1, human PTH-1 receptor (Homo sapiens, UniProt Q03431); assay: cAMP-stimulating activity in HKRK-B7 cells (LLC-PK1 stably transfected with human PTH-1 receptor), RIA; conditions: HKRK-B7 cells
T1 construct: expressed in transfected cells; host or cells: HKRK-B7 (LLC-PK1 stably transfected, pCDNA-1-based plasmid)
T1 sequence (Q03431 27-593): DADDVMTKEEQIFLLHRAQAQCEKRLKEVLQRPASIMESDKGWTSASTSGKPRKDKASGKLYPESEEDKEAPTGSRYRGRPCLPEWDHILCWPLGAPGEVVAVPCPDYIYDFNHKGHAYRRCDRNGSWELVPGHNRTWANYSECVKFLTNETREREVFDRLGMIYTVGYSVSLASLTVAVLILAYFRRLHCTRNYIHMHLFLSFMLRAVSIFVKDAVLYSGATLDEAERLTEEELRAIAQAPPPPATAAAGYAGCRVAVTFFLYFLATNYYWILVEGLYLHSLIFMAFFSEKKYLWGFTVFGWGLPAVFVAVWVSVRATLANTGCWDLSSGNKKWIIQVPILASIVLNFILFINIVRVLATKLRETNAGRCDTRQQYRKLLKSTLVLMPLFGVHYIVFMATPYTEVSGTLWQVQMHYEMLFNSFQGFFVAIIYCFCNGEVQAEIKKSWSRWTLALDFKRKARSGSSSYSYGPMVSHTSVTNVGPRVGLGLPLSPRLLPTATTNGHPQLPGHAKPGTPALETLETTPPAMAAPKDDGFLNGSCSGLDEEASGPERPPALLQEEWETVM
Method: FIG. 2. cAMP-stimulating Activity of PTH Fragments in LLC-PK1 Cells. A) Rat PTH(1–34) analog or amino-terminal rPTH fragments were tested for cAMP-stimulating activity in an LLC-P1-derived cell line (HKRK-B7) stably transfected with the human PTH-1 receptor. Cells were treated with peptide at the indicated doses for 60 min at 22° C. Intracellular cAMP was measured by RIA, as described in Experimental Procedures. Shown are combined data (mean±s.e.m.) from 3 separate experiments, each performed in duplicate. B) HKRK-B7 cells, or untransfected LLC-PK1 were treated with rPTH(1–34) or rPTH(1–14), and intracellular cAMP was measured. Shown are data (mean±s.e.m.) from a single representative experiment performed in duplicate.
FIG. 3. Alanine-scan of PTH(1–14). HKRK-B7 cells were treated with 100 mM of one of 14 different rPTH(1–14) analogs, each having a different alanine-substitution at the indicated amino acid position. The resulting cAMP levels were determined as described in Experimental Procedures. Shown are the combined data (mean±s.e.m.) from three separate experiments, each performed in duplicate. The mean (mean±s.e.m.) basal cAMP levels observed in the three experiments was 2.1±0.1 pmole/well, and the maximum response to rPTH(1–34) at 0.1 mM was 254±16 pmole/well.
Cell Culture and DNA Transfection: COS-7 and HKRK-B7 cells were cultured at 37° C. in Dulbecco's modified Eagle's medium (DMEM) supplemented with fetal bovine serum (10%); penicillin G (20 units/ml), streptomycin sulfate (20 μg/ml) and amphotericin B (0.05 μg/ml) in a humidified atmosphere containing 5% CO2. Twenty-four to 16 hours prior to assay, cells in 24-well plates were shifted to a humidified incubator containing 5% CO2 that was set at 33° C. Stock solutions of EGTA/trypsin and antibiotics were from GIBCO; fetal bovine serum was from Hyclone Laboratories (Logan, Utah). Derivation and characterization of the HKRK-B7 cell line by stable transfection of LLC-PK1 cells with a pCDNA-1-based plasmid (In Vitrogen, San Diego, Calif.) encoding the hPTH-1 receptor was described previously (Takasu, H. and Bringhurst, F., Endocrinology, in press (1998)). These cells express PTH-1 receptors at a surface density of about 1×10^6 PTH-binding sites per cell. The HKRK-B7 cells were used for functional assays 24 to 72 hours after the cell monolayer reached confluency.
(§1) Intracellular cyclic AMP: Transfected COS-7 or HKRK-B7 cells were rinsed with 500 ml of binding buffer, (50 mM Tris-HCl, pH 7.7, 100 mM NaCl, 5 mM KCl, 2 mM CaC12, 5% heat-inactivated horse serum, 0.5% heat-inactivated fetal bovine serum) and 200 ml of IBMX buffer (DMEM containing 2 mM IBMX, 1 mg/ml bovine serum albumin, 35 mM Hepes-NaOH, pH 7.4) and […] of binding buffer or binding buffer containing various amounts of peptide were added. The plates were incubated for 60 minutes at room temperature. The buffer was then withdrawn and the cells were frozen on dry ice, treated with 0.5 ml of 50 mM HCl, and refrozen. After the thawing, the lysate was diluted 30-fold in dH20 and an aliquot was analyzed for cAMP content by determined radioimmunoassay using unlabeled cAMP as a standard.
Amino-terminal peptide fragments based on the rat PTH sequence and ranging in length from PTH(1–9) to PTH(1–15) were synthesized and tested for activity in an LLC-PK1-derived cell line called HKRK-B7 which stably expresses high levels (1×10^6 receptors/cell) of the cloned human PTH-1 receptor (Takasu, H. and Bringhurst, F., Endocrinology, in press (1998)).

[1] = target: T2, truncated rat PTH-1 receptor (rΔNt) (Rattus norvegicus, UniProt P25961, E586G); assay: cAMP response in COS-7 cells transiently transfected with truncated rat PTH-1 receptor (rΔNt); conditions: secretin(1–27) 1 mM
T2 construct: contains an open reading frame encoding a protein of about 435 amino acid residues; expressed in transfected cells; host or cells: COS-7, transient (DEAE-dextran), pCDNA-1 based plasmid
T2 sequence (P25961 with tags, fused parts or gaps E586G): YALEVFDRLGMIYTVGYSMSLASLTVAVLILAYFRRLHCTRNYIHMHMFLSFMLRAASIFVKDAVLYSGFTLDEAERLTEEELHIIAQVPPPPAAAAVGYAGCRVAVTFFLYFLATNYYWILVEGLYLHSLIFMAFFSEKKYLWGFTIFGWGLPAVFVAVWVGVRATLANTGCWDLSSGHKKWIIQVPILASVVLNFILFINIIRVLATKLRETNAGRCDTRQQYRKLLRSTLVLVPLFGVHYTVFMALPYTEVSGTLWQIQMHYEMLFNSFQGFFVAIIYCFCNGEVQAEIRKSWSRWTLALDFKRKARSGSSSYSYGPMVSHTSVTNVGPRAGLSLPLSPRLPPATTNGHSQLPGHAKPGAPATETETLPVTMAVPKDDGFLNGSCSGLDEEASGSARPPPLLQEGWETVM
From the text: FIG. 4. PTH Responses of Intact and Truncated PTH-1 Receptors in COS-7 Cells. Shown at the top are schematics of the intact (A) and truncated (B) rat PTH-1 receptors used for transient transfection of COS-7 cells, and subsequent cAMP response assays. The conserved extracellular cysteine residues are depicted as open circles and numbered according to sequence position, and the nine amino acids of the epitope tag (HA) in rWT-HA are shaded. The tics at residue 26 and 181 indicate the endpoints of the deletion in rΔNt. Based on the predicted signal peptide cleavage site at Ala-22, residues 23–25 in rΔNt are joined to residue 182. The cAMP responses of COS-7 cells expressing the intact receptor (C) and rΔNt (D) to rPTH(1–34) (J) or rPTH(1–14) (C) are also shown. The graphs show combined data (mean±s.e.m.) from five separate experiments, each performed in duplicate. […]
FIG. 6. Specificity of the Truncated Ligand and PTH Receptor. COS-7 cells transiently transfected with either rWT-HA (A), rΔNt (B), or the intact rat secretin receptor (C), were treated with the indicated peptides for 60 min at 22° C., and the resulting intracellular cAMP levels were quantified by RIA. Concentration of peptides present during the incubations were: rPTH(1–34), 0.1 mM; rPTH(1–14) 100 mM; secretin(1–27). […] Shown are data (mean±s.e.m.) from one experiment performed in duplicate, and this was repeated twice more with equivalent results.
For studies with the intact and truncated rat PTH-1 receptors, transient transfections of COS-7 cells were performed using DEAE-dextran as described previously (Bergwitz, C., et al., J. Biol. Chem. 272:28861–28868)). The construction and initial characterization of the pCDNA-1 based plasmids encodin either the intact or truncated rat PTH-1 receptor has been described previously (Lee, C., et al., Endocrinology 135(4):1488–1495)). […] The truncated rat PTH-1 receptor (rΔNt) is deleted for exons E1 through exon G (residues 26 to 181). Assuming that signal peptidase cleavage occurs between Ala-22 and Tyr-23 (Nielsen, H., et al., Protein Engineering 10:1–6 (1997)), rΔNt is predicted to have for its N-terminus residues Dautzenberg, F., et al., Proc. Natl. Acad. Sci. 95:4941–4946 (1998); Holtmann, M., et al., J. Biol. Chem. 270:14394–14398 (1995); DeAlmeida, V. and Mayo, K., Mol. Endo. 12:750–765 (1998)) joined to Glu-182 (FIG. 3B). COS-7 cells were transfected in 24-well plates when the cells were 85 to 95% of confluency, using 200 ng of plasmid DNA that was purified by cesium chloride/ethidium bromide gradient centrifugation for each well. Assays were conducted 72 to 96 hours after transfection. Under these conditions about ˜20% of the COS-7 cells become transfected and express about 5×10^6 surface PTH receptors per cell (Bergwitz, C., et al., J. Biol. Chem. 272:28861–28868)).
as §1
Experiments utilized COS-7 cells transfected with either the intact rat PTH-1 receptor (rWT-HA, FIG. 4A) or a truncated rat PTH-1 receptor with most of the amino-terminal extracellular domain deleted (rΔNt, FIG. 4B).

rat secretin receptor = target: T3, rat secretin receptor (Rattus norvegicus, UniProt P23811); assay: cAMP response in COS-7 cells transfected with the rat secretin receptor; conditions: secretin(1–27) 1 mM; COS-7 cells transfected with the secretin receptor
T3 construct: expressed in transfected cells; host or cells: COS-7, transient
Method: FIG. 6. Specificity of the Truncated Ligand and PTH Receptor. COS-7 cells transiently transfected with either rWT-HA (A), rΔNt (B), or the intact rat secretin receptor (C), were treated with the indicated peptides for 60 min at 22° C., and the resulting intracellular cAMP levels were quantified by RIA. […] 1 mM and secretin(1–13), 100 mM. Shown are data (mean±s.e.m.) from one experiment performed in duplicate, and this was repeated twice more with equivalent results.
as §1
In order to test whether PTH(1–14) and rΔNt retained the appropriate recognition specificity for the corresponding parent ligand, cross-reactivity experiments were done using secretin ligands and the cloned rat secretin receptor. […] Cells expressing rΔNt responded to PTH(1–34) and PTH(1–14) but not to secretin(1–27) (1 mM) or secretin(1–13) ([…]) (FIG. 5B). Thus, the recognition specificity of PTH(1–14) and rΔNt appear to replicate that of the intact parent molecules. No evidence for relaxed specificity was detected in these studies (FIG. 6).

T3 sequence (P23811 26-449): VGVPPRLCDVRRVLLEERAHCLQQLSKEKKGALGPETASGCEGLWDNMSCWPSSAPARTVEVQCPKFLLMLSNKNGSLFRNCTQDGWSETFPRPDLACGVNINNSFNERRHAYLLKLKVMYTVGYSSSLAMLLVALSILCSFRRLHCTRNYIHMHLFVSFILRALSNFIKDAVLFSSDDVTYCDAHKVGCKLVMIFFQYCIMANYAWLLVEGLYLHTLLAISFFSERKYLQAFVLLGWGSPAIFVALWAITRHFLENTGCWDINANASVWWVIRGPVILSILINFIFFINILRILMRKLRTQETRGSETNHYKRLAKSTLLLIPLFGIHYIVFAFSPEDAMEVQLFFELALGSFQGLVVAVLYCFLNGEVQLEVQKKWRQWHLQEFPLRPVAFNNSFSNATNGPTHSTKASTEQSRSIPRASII

PH(1–13): Amino-terminal peptide fragment based on the rat PTH sequence, residues 1–13, C-terminally amidated (AVSEIQLMHNLGK-NH2)
increase in cAMP accumulation (in words) (human PTH-1 receptor): little or no increase

PTH(1–15): Amino-terminal peptide fragment based on the rat PTH sequence, residues 1–15, C-terminally amidated (AVSEIQLMHNLGKHL-NH2)
doses required for cAMP activation compared with the dose required for PTH(1–34) (human PTH-1 receptor): five to six orders of magnitude higher | increase in intracellular cAMP levels relative to the basal cAMP level (human PTH-1 receptor; 60 min at 22° C.): about 20 fold

secretin(1–13): truncated secretin ligand used in cross-reactivity experiments (HSDGTFTSELSRL; not fully specified (C-terminus); ends and bridges not checked; UniProt P09683 28-40, looked up, fragment)
cAMP response of cells expressing rΔNt (in words) [1]: not

secretin(1–27): secretin ligand used in cross-reactivity experiments
cAMP response of cells expressing rΔNt (in words) [1]: not | increase in cAMP levels (rat secretin receptor): 50 fold
